Test results from patent US20070060537.

Key:
[1] = molecular target: GST-UbcH5c, P61077
[2] = molecular target: His6-UbcH13/Uev1a, Q13404
[3] = molecular target: His-UbcH6, P51965
[4] = molecular target: GST-UbcH5a, P51668
[5] = molecular target: E2 Ubch5c from bacteria, P61077
Sequence of E2 Ubch5c from bacteria, P61077 (P61077 whole entry): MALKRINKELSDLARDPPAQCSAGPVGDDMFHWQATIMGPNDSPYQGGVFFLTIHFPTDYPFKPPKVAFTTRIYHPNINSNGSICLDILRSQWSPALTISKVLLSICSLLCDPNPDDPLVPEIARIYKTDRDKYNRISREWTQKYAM

Sequence of GST-UbcH5a, P51668 (P51668 whole entry): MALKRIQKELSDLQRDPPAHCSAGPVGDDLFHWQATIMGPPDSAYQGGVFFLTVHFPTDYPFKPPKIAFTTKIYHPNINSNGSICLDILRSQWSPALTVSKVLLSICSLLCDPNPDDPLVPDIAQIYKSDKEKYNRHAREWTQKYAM
Sequence of GST-UbcH5c, P61077 (P61077 whole entry): as the sequence (P61077 whole entry) above
Sequence of His6-UbcH13/Uev1a, Q13404 (chain, as listed by the source, chain 1 of 2): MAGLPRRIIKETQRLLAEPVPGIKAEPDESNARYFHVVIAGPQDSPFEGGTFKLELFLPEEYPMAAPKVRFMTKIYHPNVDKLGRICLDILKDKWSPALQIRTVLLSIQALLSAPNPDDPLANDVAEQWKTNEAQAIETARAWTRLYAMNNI
Sequence of His6-UbcH13/Uev1a, Q13404 (Q13404 other isoform, or with tags, fused parts or gaps, chain 2 of 2): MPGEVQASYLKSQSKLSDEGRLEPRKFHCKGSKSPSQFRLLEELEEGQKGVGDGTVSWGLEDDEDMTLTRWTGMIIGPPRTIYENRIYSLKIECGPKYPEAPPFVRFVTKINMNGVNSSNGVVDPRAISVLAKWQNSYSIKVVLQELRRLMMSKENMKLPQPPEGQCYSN
Sequence of His-UbcH6, P51965 (P51965 whole entry): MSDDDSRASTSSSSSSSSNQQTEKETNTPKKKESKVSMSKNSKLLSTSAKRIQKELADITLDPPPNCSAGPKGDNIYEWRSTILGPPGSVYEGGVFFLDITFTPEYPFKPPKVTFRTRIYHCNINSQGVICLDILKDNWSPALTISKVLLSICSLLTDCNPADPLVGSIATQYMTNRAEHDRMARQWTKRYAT

B1: GST-hPOSH1-139 (protein)
chain: MDESALLDLLECPVCLERLDASAKVLPCQHTFCKRCLLGIVGSRNELRCPECRTLVGSGVEELPSNILLVRLLDGIKQRPWKPGPGGGSGTNCTNALRSQSSTVANCSSKDLQSSQGGQQPRVQSWSPPVRGIPQLPCA
Which results are given for B1?
self-ubiquitination of hPOSH (high molecular weight ubiquitin-biotin conjugates, streptavidin blot) [1]: conjugation of ubiquitin to hPOSH was supported by four E2s, UbCH13/Uevla, UBCH5a, UBCH5c and UBCH6; self-ubiquitination of hPOSH (high molecular weight ubiquitin-biotin conjugates, streptavidin blot) [2]: conjugation of ubiquitin to hPOSH was supported by four E2s, UbCH13/Uevla, UBCH5a, UBCH5c and UBCH6; self-ubiquitination of hPOSH (high molecular weight ubiquitin-biotin conjugates, streptavidin blot) [3]: conjugation of ubiquitin to hPOSH was supported by four E2s, UbCH13/Uevla, UBCH5a, UBCH5c and UBCH6; self-ubiquitination of hPOSH (high molecular weight ubiquitin-biotin conjugates, streptavidin blot) [4]: conjugation of ubiquitin to hPOSH was supported by four E2s, UbCH13/Uevla, UBCH5a, UBCH5c and UBCH6

B2: POSH # 176 (1-269) gst fusion (protein)
chain: MDESALLDLLECPVCLERLDASAKVLPCQHTFCKRCLLGIVGSRNELRCPECRTLVGSGVEELPSNILLVRLLDGIKQRPWKPGPGGGSGTNCTNALRSQSSTVANCSSKDLQSSQGGQQPRVQSWSPPVRGIPQLPCAKALYNYEGKEPGDLKFSKGDIIILRRQVDENWYHGEVNGIHGFFPTNFVQIIKPLPQPPPQCKALYDFEVKDKEADKDCLPFAKDDVLTVIRRVDENWAEGMLADKIGIFPISYVEFNSAAKQLIEWDKP
How did the “in-vitro self-ubiquitination of hPOSH (anti-ubiquitin immunoblot)” value [5] turn out when B2 was run?
The value was “Ub-hPOSHconjugates, detected as high molecular weight adducts only in reactions containing E1, E2 and ubiquitin”.

B3: POSH #178 (1-361) gst fusion (protein)
chain: MDESALLDLLECPVCLERLDASAKVLPCQHTFCKRCLLGIVGSRNELRCPECRTLVGSGVEELPSNILLVRLLDGIKQRPWKPGPGGGSGTNCTNALRSQSSTVANCSSKDLQSSQGGQQPRVQSWSPPVRGIPQLPCAKALYNYEGKEPGDLKFSKGDIIILRRQVDENWYHGEVNGIHGFFPTNFVQIIKPLPQPPPQCKALYDFEVKDKEADKDCLPFAKDDVLTVIRRVDENWAEGMLADKIGIFPISYVEFNSAAKQLIEWDKPPVPGVDAGECSSAAAQSSTAPKHSDTKKNTKKRHSFTSLTMANKSSQASQNRHSMEISPPVLISSSNPTAAARISELSGLSCSAPSQVHIST
For B3, which “in-vitro self-ubiquitination of hPOSH (anti-ubiquitin immunoblot)” value [5] is on record?
Its value is “Ub-hPOSHconjugates, detected as high molecular weight adducts only in reactions containing E1, E2 and ubiquitin”.
